Assay results taken from patent publication US20230095569A1 (ANTENGENE BIOLOGICS, published 2023).

Key:
[1] = target: T1, human Claudin18.2 (CLDN18.2) (human, UniProt P56856 1-261); assay: cell-based or functional assay
[2] = target: T1, human Claudin18.2 (CLDN18.2); assay: cell-based or functional assay; remark: listed apart in the source
[3] = target: T1, human Claudin18.2 (CLDN18.2); assay: cell-based or functional assay; remark: listed apart in the source
[4] = target: T1, human Claudin18.2 (CLDN18.2); assay: FACS on CHOK1-18.2 cells
[5] = target: T1, human Claudin18.2 (CLDN18.2); assay: FACS on GAXC031 cells, antibody at 50 µg/ml
[6] = target: T1, human Claudin18.2 (CLDN18.2); assay: FACS on CHOK1-18.2 cells, antibody at 50 µg/ml
[7] = target: T1, human Claudin18.2 (CLDN18.2); assay: FACS on GAXC031 cells

Binder	ADCC EC50 [1] [nM]	Max tumor cell killing (% of control), ADCC [1]	CDC EC50 [2] [nM]	Max CDC induced tumor cell killing (% of control) [2]	IC50 of indirect ADC cytotoxicity [3] [nM]	Max inhibition % [3] [%]	EC50 [4] [nM]	MAX MFI [5]	MAX MFI [6]	EC50 [7] [nM]
chAb30 (antibody, V domains shown) VH: QVQLKESGPGLVAPSQSLSITCTVSGFSLTKFGVNWVRQPPGKGLEWLGAIWGDGSTNYHSALISRLSINKDNSKSQVFLKLSSLQNVDTATYYCAKSGYGNAMDYWGHGTSVTVSS VL: DIVMTQSPSSLTVTTGEKVTLNCKSSQSLLNSGNLKNYLTWYQQRPGQPPKLLIYWASTRESGVPYRFTGSGSGTDFTLTISNVQAEDLAIYYCQNDYFFPFTFGSGTKLEIK	7.44	80.2 % of control	23.2	76.1 % of control	1.58	92.4	9.76	4460	65000	
chAb31 (antibody, V domains shown) VH: QIQLAQSGPELKKPGETVKISCKASGYSFTNYGMNWVKQAPGKGLKWMGWINTYSGETKYADDFKGRFDFSLETSARTAYLQIKNLKIEDTATYFCARRDAMDYWGQGTSVTVSS VL: DIVMTQAAPSVPVTPGESVSISCRSSKSLLNSNGNTYLYWFLQRPGQSPQLLIYRMSNLASGVPDRFSGSGSGTAFTLRISRVEAEDVGVYYCMQHLEFPFTFGSGTKLEIK	8.16	78.8 % of control	37.9	60.7 % of control	2.35	91.7	5.17	3770	59900	
chAb05 (antibody, V domains shown) VH: DVKLVESGEDLVKPGGSLKLSCAASGFTFSNYAMSWVRQTPEKRLEWVAYVSSGGDYIYYADTVKGRFIISRDNARNTLYLQMNSLRSEDTAMYYCARVYFGNSLDYWGQGTTLTVSS VL: DIVMTQSPSSLTVTAGEKVTLSCKSSQSLLNGGNQKNYLTWYQQRPGQPPKLLIYWASTRESGVPDRFTGSGSGTDFTLIISSVQAEDLAVYYCQNDYYYPWTFGGGTKLEIK	5.92	57.9 % of control	17.8	78.9 % of control	0.99	92.3	5	4600	83900	73.8
chAb25 (antibody, V domains shown) VH: EAQLQQSGPELVKPGASVKIFCKASGYTFTDYYINWVKQSHGKSLEWIGDINPNNGGTTYNQKFKGKATLTVDKSSSTASMELRRLTSEDSSVYYCARRDAMDYWGQGTSVTVSS VL: DIVMTQSQKFMSTTVGDRVSITCTASQNVGPAVAWYQQKPGQSPKLLIYSASRRFTGVPDRFTGSGSGTVFTLTINNVQSEDLADYFCQQYISYPLTFGAGTKLELK	8.38	76.8 % of control	25.4	72.9 % of control	0.86	92.9	8.27	3020	56100	
chAb17 (antibody, V domains shown) VH: QVQLKESGPGLVAPSQSLSITCTVSGFSLTSYAISWVRQPPGKGLEWLGEIWTGGGTNYNSALKSRLSISKDNSKSQVFLKMNSLQTDDTARYYCGRLSYGNSLDYWGQGTTLTVSS VL: DIVMTQSPSSLTVTAGEKVTMSCKSSQSLLNSGNQKNYLTWYQQKPGQPPKLLIYWASTRESGVPDRFTGSGSGTDFTLTVSSVQAEDLAVYYCQNNFIYPLTFGPGTKLELK	2.46	60.6 % of control	9.93	70.8 % of control	0.88	92.4	4.74	4230	83800	94.2
chAb06 (antibody, V domains shown) VH: EVQLVASGGGLVKPGGSLKLSCAASGITFRSYAMSWVRQTPEKRLEWVATITDGGSYIFYPDNVKGRFTISGDHAKNNLYLQMSHLKSEDTALYFCVRLYYGNSFAYWGQGTLVTVSA VL: DIVMTQSPSSLTVTAGEKVTLNCKSSQSLFNSGNQKNYLTWYQQKPGQPPKLLIYWASTRESGVPDRFTGSGSGTDFTLTFSSVQAEDLAVYYCQNAYIYPFTFGSGTKLEIK	3.01	40.6 % of control	9.72	75.4 % of control	0.61	91.8	5.42	5460	92800	
chAb10 (antibody, V domains shown) VH: EVMLVESGGGLVKPGGSLKLSCAASGFTFSSYTMSWVRQTPEKRLEWVATISVIGGNTYYVDSVKGRFTISRDKAKNTLYLQMSSLRSEDTALYYCARLGQTQRNAMDYWGQGTSVTVSS VL: DIVMTQSPSSLSVSAGEKVTMSCKSSQSLLNSGNQKNYLAWYQQKPGQPPKLLIYGASTRESGVPDRFTGSGSGTDFTLTISSVQAEDLAVYYCQNDYSYPLTFGAGTKLELK	1.68	55.2 % of control	2.69	82.7 % of control	0.24	92.8	2.27	6940	80400	29.2
chAb15 (antibody, V domains shown) VH: EVMLVESGGDLVKPGGSLKLSCAASGFTFSTYTMSWVRQTPEKRLEWVATIVGGGGYTYYLDSVKGRFTISRDNAKNTLYLQMISLRSEDTALYYCARMGLTQRNALDYWGQGTSITVSS VL: DIVMTQSPSSLSVSEGEKVTLNCKSSQSLFNSGNQKNYLAWYQQKPGQPPKLLIYGASTRESGVPDRFTGSGFGTDFTLTISSVQAEDLAVYYCQNDHTYPLTFGAGAKLELK	2.65	36.5 % of control	8.15	77.4 % of control	0.38	92.4	4.64	6110	94000	31.9
chAb18 (antibody, V domains shown) VH: QVQLKESGPGLVAPSQSLSITCTVSGFSLTTYGINWVRQPPGKGLEWLGVIWGDGSTNYHSALISRLSISKDNSKSQVFLKLNSLQTDDTATYYCVKSSYYGNAMDYWGQGTSVTVSS VL: DIVMTQSPSSLTVTAGETVTMSCKSSQSLLNSGNQKNYLTWYQQKPGQPPKLLIYWASTRESGVPDRFTGSGSGTDFTLTISSVQAEDLAVYYCQNVYSYPFTFGSGTKLEI	5.07	61.5 % of control	35	75.3 % of control	1.58	90.7	7.71	3690	60200	
chAb24 (antibody, V domains shown) VH: EVKLVESGGGLVKPGGSLKLSCAGSGFTFSSYTMSWVRQTPEKRLEWVATITIGVNIYYLDSVKGRFTISRDNAKNTLYLQMNSLRSEDTALYYCTRLGQTQRNAMDYWGQGTSVTVSS VL: DIVMTQSPTSLSVSAGEKVTMTCKSSQSLFNSGNQKNYLAWYQEKPGQPPKLLIYGASTRESGVPDRFTGSGSGTDFTLTISSVQAEDLAVYYCQNVHFYPFTFGAGTKLEL	4.46	66.6 % of control	12.8	70.7 % of control	0.85	92.7	4.99	5860	64500	
chAb20 (antibody, V domains shown) VH: EVMLVESGGGLVKPGGSLKLSCVASGFTFSSYTMSWVRQTPEKRLEWVATIIGGYGNTYYSDSVKGRITISRDSAKNTLYLQMISLRSEDTALYYCTRLGQTQRNAMDYWGQGTSVTVSS VL: DILMTQSPSSLSVSAGEKVTMNCKSSQSLLNSGNQKNYLAWYQQKPGQPPKLLIYGASTRESGVPDRFTGSGSGTDFTLTISSVQAEDLAVYYCQNDYYYPFTFGAGTKLEL	4.14	62.9 % of control	8.82	73 % of control	0.47	92.8	3.88	6260	65700	42.9
chAb29 (antibody, V domains shown) VH: EVLLQQSGPELVKPGASVKIPCKASGYTLTDHSMDWVKQSHGKSLEWIGNILPNNGGNIYNQKFRGKATLTVDKSSSTAYMELRSLTSEDTAVYNCARGHYGNSFAYWGQGTLVIVS VL: DIVMTQSPSSLTVRAGEKVTIYCKSSQSLFNSGNQKNYLTWYQQKPGQPPKLLIYWASTRESGVPHRFTGSGSGTDFTLTISSMQADDLATYYCQNGYFFPYTFGGGTKLEIK	5.27	60.9 % of control	12.7	67.8 % of control	0.91	93.5	6.63	5640	63400	
IMAB362 (Zolbetuximab) (antibody, V domains shown) VH: QVQLQQPGAELVRPGASVKLSCKASGYTFTSYWINWVKQRPGQGLEWIGNIYPSDSYTNYNQKFKDKATLTVDKSSSTAYMQLSSPTSEDSAVYYCTRSWRGNSFDYWGQGTTLTVSS VL: DIVMTQSPSSLTVTAGEKVTMSCKSSQSLLNSGNQKNYLTWYQQKPGQPPKLLIYWASTRESGVPDRFTGSGSGTDFTLTISSVQAEDLAVYYCQNDYSYPFTFGSGTKLEIKR	36.1	30.7 % of control	809	52.5 % of control	4.75	81.8	5.69	742	49600	36.1
